{"source": "patent US8153134", "about": "(SCHERING, dated 2012)", "binders": {"B1": {"name": "DX233 (antibody, V domains shown)", "VH": "EVQMQQSGAELVKPGASVKLSCTASGFNIKDTYMHWVKQRPEQGLEWIGRIDPANGITKSDPKFQGKATITADTSSNTAYLQLNSLTSEDTAVYSCAPYSGNYVWFPYWGQGTLVTVSA", "VL": "DIVMTQSHKFMSTSVGDRVNITCKASQDVGTAVAWYQRKPGKSPQVLIYWASTRHTGVPDRFTGSGSGTDFTLTISNVQSEDLADYFCQQYRSYPLTFGAGTKLELKR", "notes": "Rodent anti-human MDL-1 monoclonal antibody from a hybridoma; VL of the kappa subclass; also called anti-MDL-1 antibody clone DX233"}, "B2": {"name": "DX239 (antibody, V domains shown)", "VH": "QVQLQQSGAELVRPGTSVKISCKASGYGFNNYWLGWVKQRPGHGLEWIGDIYPGSGNTYYNENFKGRATLTADKSSTTAYMQVSSLTSEDSAVYFCARGKESFAYWGQGTLVTVSA", "VL": "not shown", "notes": "Parental rodent anti-human MDL-1 monoclonal antibody (not the humanized form); VL of the kappa subclass; also called anti-MDL-1 antibody clone DX239; ATCC PTA-9135"}, "B3": {"name": "DX240 (antibody, V domains shown)", "VH": "QVQLLQSGAELVKPGASVKISCKASGYTFTDHAIHWVKQKPEQGLEWIGYISPGDGDIKYNEKFKDKATLTADKSSSIAYMQLNSLTSEDSAVYFCKNFDYDFIFDFWGQGTTLTVSS", "VL": "DIVMSQSPSSLAVSAGETVTMSCKSSQSLLNSRARKNYLAWYQQKPGQSPKLLIYWASTRESGVPDRFTGSGSGTDFTLTISSVRAEDLAVYYCKQSYNLYTFGGGTKLEIKR", "notes": "Rodent anti-human MDL-1 monoclonal antibody from a hybridoma; VL of the kappa subclass; also called anti-MDL-1 antibody clone DX240; ATCC PTA-9136"}, "B4": {"name": "DX230 (antibody, V domains shown)", "VH": "EVQLVESGGDLVKPGGSLKLSCAASGFAFSNYDMSWVRQTPEKRLEWVAYISGGGGTTYYSDTVKGRFTISRDNAKNTLYLQMSSLKSEDTAMYYCVRHAVYYGKPYWGQGTTLTVSS", "VL": "DIVLTQSPPSLAVSLGQRATVSCRASESVEHYGTGLMQWYQQKPGQPPRLLIYAASNVESGVPARFSGSGSGTDFSLNIHPVEEDDIAMYFCQQSRKVPWTFGGGTKLEIKR", "notes": "Rodent anti-human MDL-1 monoclonal antibody from a hybridoma; VL of the kappa subclass; also called anti-MDL-1 antibody clone DX230; ATCC PTA-8373"}, "B5": {"name": "DX241 (antibody, V domains shown)", "VH": "DVKLVESGGGLVKLGGSLKLSCAASGFTFSSYYMSWVRQTPDKRLELVAAINSNGGTTYYPDTVKGRFTISRDNAKNTLYLQMSSLKPEDTALFYCVRDGEFGHYFDYWGQGTTLTVSS", "VL": "SIVMTQTPKFLLVSAGDRVTITCKASQSVNNDVAWYQQKPGQSPKLLIYYASNRYTGVPDRFTGSGYGTDFTFTISTVQAEDLAVYFCQQDYNSPLTFGAGTKLELKR", "notes": "Rodent anti-human MDL-1 monoclonal antibody from a hybridoma; VL of the kappa subclass; also called anti-MDL-1 antibody clone DX241; ATCC PTA-8374"}, "B6": {"name": "DX244 (antibody, V domains shown)", "VH": "QIQLVQSGPELKKPGETVKISCKASGYTFTIYAMNWVKQAPGKGLEWMGWINTDTGEPTYADDFKGRFAFSLETSASTAYLQINNLKNEDMATYFCARSSEVFYDYRFDYWGQGTALTVSS", "VL": "DIQMTQSPSSLSASLGERVSLTCRASQDIGSSLNWLQQEPDGTIKRLIYATSNLDSGVPKRFSGSRSGSDYSLTISSLESEDFVHYYCLQYASSPFTFGSGTKLEIKR", "notes": "Parental rodent anti-human MDL-1 monoclonal antibody (not the humanized form); VL of the kappa subclass; also called anti-MDL-1 antibody clone DX244; ATCC PTA-8375"}, "B7": {"name": "DX246 (antibody, V domains shown)", "VH": "QVTLKESGPGILKPSQTLSLTCSFSGFSLSTSGMNVGWIRQPSGKGLEWLAHIWWDDDKYYNPSLKSQLTISKDTSRNQVFLKITSVDTADTATYYCARRAFYGSNYDYYAMDYWGQGTSVTVSS", "VL": "ENVLTQSPAIMSASPGEKVTMTCSVSSSVSYIHWYQQKSSTSPKLWIYDTSKLASGVPGRFSGSGSGNSYSLTISSMEAEDVATYYCFQGSGYPLTFGAGTKLELKR", "notes": "Rodent anti-human MDL-1 monoclonal antibody from a hybridoma; VL of the kappa subclass; also called anti-MDL-1 antibody clone DX246; ATCC PTA-8376"}, "B8": {"name": "DX297 (antibody, V domains shown)", "VH": "B4 VH with A23T, K76R, M93I, V97A, A100P, V101I", "VL": "B4 VL with P9A, V21I, G35S, S69G, S95N"}}, "note": "Substitutions are numbered along the chain they refer to."}
{"target": "T1, hMDL-1-hIG (human, UniProt Q9NY25 28-188)", "T1 construct": "Fusion of human MDL-1 with human Ig used in the BIAcore assay; MDL-1 is a type II membrane protein, so the Ig part may stand N-terminal; also called MDL-1-hIg ligand; not shown: human Ig part (hIG)", "T1 sequence": "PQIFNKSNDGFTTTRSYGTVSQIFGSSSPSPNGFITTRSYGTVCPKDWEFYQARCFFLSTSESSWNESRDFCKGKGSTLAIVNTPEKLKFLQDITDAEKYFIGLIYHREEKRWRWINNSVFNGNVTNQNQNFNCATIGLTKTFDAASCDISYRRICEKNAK", "experiment": "BIAcore SPR; mAb as capture reagent, hMDL-1-hIG as analyte; apparent Kd", "description": "(§1) Determining the Equilibrium Dissociation Constant (K_d) for Humanized Anti-Human MDL-1 Antibodies Using BIAcore Technology BIAcore determinations are performed essentially as described at Example 4 of co-pending, commonly assigned U.S. patent application Ser. No. 11/511,635 (filed 29 Aug. 2006). Briefly, ligands (anti-MDL-1-hIg) are immobilized on a BIAcore CM5 sensor chip using standard amine-coupling procedure. Kinetic constants for the various interactions are determined using BIAevaluation software 3.1. The K_d is determined using the calculated dissociation and association rate constants.\n(§2) For antibodies DX233, DX239, and DX240, the antibodies were used as the capture reagent and the MDL-1-hIg ligand was used as the analyte. Affinity measurements for DX233, DX239, and DX240 were as follows.", "units": {"Kd": "nM"}}
{"binder": "B1", "Kd": 8.65}
{"binder": "B2", "Kd": 37.9}
{"binder": "B3", "Kd": 43}
{"target": "T1, hMDL-1-hIG", "experiment": "BIAcore SPR; mAb as capture reagent, hMDL-1-hIG as analyte", "description": "as §1, §2", "units": {"koff": "s⁻¹", "kon": "M⁻¹ s⁻¹"}}
{"binder": "B1", "koff": 0.000147, "kon": 20000}
{"binder": "B2", "koff": 0.000336, "kon": 10000}
{"binder": "B3", "koff": 0.000325, "kon": 8000}
{"target": "T2, human MDL-1 (human, UniProt Q9NY25 1-188)", "T2 sequence": "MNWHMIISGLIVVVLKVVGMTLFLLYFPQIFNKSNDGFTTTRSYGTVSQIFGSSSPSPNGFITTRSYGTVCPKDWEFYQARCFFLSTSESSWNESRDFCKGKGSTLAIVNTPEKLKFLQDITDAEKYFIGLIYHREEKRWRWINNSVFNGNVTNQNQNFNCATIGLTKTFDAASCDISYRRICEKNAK", "experiment": "cell-based or functional assay"}
{"binder": "B1", "secreted beta-hexosaminidase, OD (405-570), DT808 mouse mast cells, cross-link": "3.21 OD (405-570)", "secreted beta-hexosaminidase, OD (405-570), DT808 mouse mast cells, no cross-link": "1.22 OD (405-570)"}
{"binder": "B2", "secreted beta-hexosaminidase, OD (405-570), DT808 mouse mast cells, cross-link": "3.14 OD (405-570)", "secreted beta-hexosaminidase, OD (405-570), DT808 mouse mast cells, no cross-link": "1 OD (405-570)"}
{"binder": "B3", "secreted beta-hexosaminidase, OD (405-570), DT808 mouse mast cells, cross-link": "3.25 OD (405-570)", "secreted beta-hexosaminidase, OD (405-570), DT808 mouse mast cells, no cross-link": "1.83 OD (405-570)"}
{"target": "T1, hMDL-1-hIG", "experiment": "BIAcore SPR; hMDL-1-hIG as capture antigen on the chip, mAb as analyte", "description": "as §1", "units": {"koff": "s⁻¹", "kon": "M⁻¹ s⁻¹"}}
{"binder": "B4", "koff": 0.0016, "kon": 63000}
{"binder": "B5", "koff": "7.3e-05", "kon": 354000}
{"binder": "B6", "koff": "6.8e-05", "kon": 277000}
{"binder": "B7", "koff": 0.000817, "kon": 644000}
{"target": "T1, hMDL-1-hIG", "experiment": "BIAcore SPR; hMDL-1-hIG as capture antigen on the chip, mAb as analyte; apparent Kd", "description": "as §1", "units": {"Kd": "nM"}}
{"binder": "B4", "Kd": 25.2}
{"binder": "B5", "Kd": 0.207}
{"binder": "B6", "Kd": 0.247}
{"binder": "B7", "Kd": 1.27}
{"target": "T2, human MDL-1", "experiment": "cell-based or functional assay", "remark": "another data set of the same source", "units": {"decrease of CD62L staining (MFI) of human neutrophils, isotype control treatment minus anti-hMDL-1 treatment": "MFI"}}
{"binder": "B6", "decrease of CD62L staining (MFI) of human neutrophils, isotype control treatment minus anti-hMDL-1 treatment": 140}
{"binder": "B7", "decrease of CD62L staining (MFI) of human neutrophils, isotype control treatment minus anti-hMDL-1 treatment": 152}
{"binder": "B1", "decrease of CD62L staining (MFI) of human neutrophils, isotype control treatment minus anti-hMDL-1 treatment": 96.9}
{"binder": "B2", "decrease of CD62L staining (MFI) of human neutrophils, isotype control treatment minus anti-hMDL-1 treatment": 142}
{"binder": "B3", "decrease of CD62L staining (MFI) of human neutrophils, isotype control treatment minus anti-hMDL-1 treatment": 114}
{"target": "T2, human MDL-1", "experiment": "cell-based or functional assay", "remark": "another data set of the same source"}
{"binder": "B4", "secreted beta-hexosaminidase, OD (405-570), DT808 mouse mast cells, cross-link": "3.17 OD (405-570)", "secreted beta-hexosaminidase, OD (405-570), DT808 mouse mast cells, no cross-link": "3.32 OD (405-570)"}
{"binder": "B8", "secreted beta-hexosaminidase, OD (405-570), DT808 mouse mast cells, cross-link": "3.28 OD (405-570)", "secreted beta-hexosaminidase, OD (405-570), DT808 mouse mast cells, no cross-link": "3.17 OD (405-570)"}
{"binder": "B5", "secreted beta-hexosaminidase, OD (405-570), DT808 mouse mast cells, cross-link": "3.25 OD (405-570)", "secreted beta-hexosaminidase, OD (405-570), DT808 mouse mast cells, no cross-link": "2.66 OD (405-570)"}
{"binder": "B6", "secreted beta-hexosaminidase, OD (405-570), DT808 mouse mast cells, cross-link": "3.36 OD (405-570)", "secreted beta-hexosaminidase, OD (405-570), DT808 mouse mast cells, no cross-link": "3.46 OD (405-570)"}
{"binder": "B7", "secreted beta-hexosaminidase, OD (405-570), DT808 mouse mast cells, cross-link": "3.23 OD (405-570)", "secreted beta-hexosaminidase, OD (405-570), DT808 mouse mast cells, no cross-link": "3.39 OD (405-570)"}
{"target": "T2, human MDL-1", "experiment": "cell-based or functional assay", "remark": "another data set of the same source", "units": {"increase in CD11b surface expression on human neutrophils, Mean Fluorescent Intensity as compared to isotype control treatment": "MFI", "increase in CD66b surface expression on human neutrophils, Mean Fluorescent Intensity as compared to isotype control treatment": "MFI"}}
{"binder": "B6", "increase in CD11b surface expression on human neutrophils, Mean Fluorescent Intensity as compared to isotype control treatment": 349, "increase in CD66b surface expression on human neutrophils, Mean Fluorescent Intensity as compared to isotype control treatment": 110}
{"binder": "B7", "increase in CD11b surface expression on human neutrophils, Mean Fluorescent Intensity as compared to isotype control treatment": 393, "increase in CD66b surface expression on human neutrophils, Mean Fluorescent Intensity as compared to isotype control treatment": 109}
{"binder": "B1", "increase in CD11b surface expression on human neutrophils, Mean Fluorescent Intensity as compared to isotype control treatment": 303, "increase in CD66b surface expression on human neutrophils, Mean Fluorescent Intensity as compared to isotype control treatment": 90.5}
{"binder": "B2", "increase in CD11b surface expression on human neutrophils, Mean Fluorescent Intensity as compared to isotype control treatment": 377, "increase in CD66b surface expression on human neutrophils, Mean Fluorescent Intensity as compared to isotype control treatment": 107}
{"binder": "B3", "increase in CD11b surface expression on human neutrophils, Mean Fluorescent Intensity as compared to isotype control treatment": 336, "increase in CD66b surface expression on human neutrophils, Mean Fluorescent Intensity as compared to isotype control treatment": 97}
